# According to patent publication US11634477 (dated 2023):
# How the values were obtained:
# [1] = biological target: SARS-CoV-2 RBD (SARS-CoV-2, UniProt P0DTC2); assay: ELISA
# [2] = biological target: SARS-CoV RBD (SARS-CoV, UniProt P59594); assay: ELISA
Binder,EC50 [1] [ng/mL],EC50 [2] [ng/mL]
"C215 (antibody, V domains shown) VH: EVQLLESGGGLVQPGGSLRLSCAASGFTFSSYAMSWVRQAPGKGLEWVSAITDSGDGTFYADSVKGRFTISRDNSKNTLYLQMNSLRAEDTAVYYCASEEDYSNYVGWFDPWGQGTLVTVSS VL: not shown",5.33,17.9
"C008 (antibody, V domains shown) VH: EVQLVESGGGVVQPGRSLRLSCAASGFTFSSYGMHWVRQAPGKGLEWVTVISYDGRNKYYADSVKGRFTISRDNSKNTLYLQMNSLRAEDTAVYYCAREFGDPEWYFDYWGQGTLVTVSS VL: not shown",4.63,> 1000
"C211 (antibody, V domains shown) VH: EVQLVESGGGLVQPGGSLRLSCAASEFTVSSNYMSWVRQAPGKGLEWVSVIYSGGSTFYADSVKGRFTISRDNSKNTLYLQMNSLRPEDTAVYYCARDYGDFYFDFWGQGTLVTVSS VL: EIVMTQSPATLSVSPGERATLSCRASQSVSSNLAWYQQKPGQGPRLLIYGASTRATGIPARFSGSGSGTEFTLTISSLQSEDFAVYYCQQYNNWPRTFGQGTKVEIK",2.82,> 1000
"C138 (antibody, V domains shown) VH: EVQLVESGGGLVQPGGSLRLSCAASGFTFSTYWMSWVRQPPGKGLEWVANIKQDGSEKYYVDSVKGRFTISRDNAKNSLYLQMNSLRADDTAVYYCAGGTWLRSSFDYWGQGTLVTVSS VL: NFMLTQPHSVSESPGKTVTISCTGSSGSIASNYVQWYQQRPGSAPTTVIYEDNQRPSGVPDRFSGSIDSSSNSASLTISGLKTEDEADYYCQSYDSSNWVFGGGTKLTVL",2.94,> 1000
"C130 (antibody, V domains shown) VH: QVQLVQSGAEVKKPGASVKVSCKASGYTFTNYYMHWVRQAPGQGLEWMGIINPSGGSTGYAQKFQGRVTMTRDTSTSTVYMELSSLRSEDTAVYYCARSRPTPDWYFDLWGRGTLVTVSS VL: SYELTQPPSVSVAPGKTARITCGGNNIGSKSVHWYQQKPGQAPVLVIYYDSDRPSGIPERFSGSNSGNTATLTISRVEAGDEADYYCQVWDSSSDHPGVVFGGGTKLTVL",2.05,> 1000
"C009 (antibody, V domains shown) VH: not shown VL: QSALTQPPSASGSPGQSVTISCTGTSSDVGGYNYVSWYQQHPGKAPKLMIYEVSKRPSGVPDRFSGSKSGNTASLTVSGLQAEDEAEYYCSSDAGSNNVVFGGGTKLTVL",1.8,> 1000
"C103 (antibody, V domains shown) VH: QVQLQQWGAGLLKPSETLSLTCAVSGGSLSGFYWTWIRQPPGKGLEWIGETNHFGSTGYKPSLKSRVTISVDMSRNQFSLKVTSVTAADTAVYYCARKPLLYSDFSPGAFDIWGQGTMVTVSS VL: EIVLTQSPGTLSLSPGERATLSCRASQTVTANYLAWYQQKPGQAPRLLIYGASKRATGIPDRFSGSGSGTDFTLSISRLEPEDFAVYYCQQYTTTPRTFGGGTKVEIK",3.77,> 1000
"C104 (antibody, V domains shown) VH: QVQLQQWGAGLLKPSETLSLSCAVYGGSLSGYYWSWIRQPPGKGLEWIGEINHFGSTGYNPSLKSRVTISVDTSKSQFSVKLSSVTAADTAVYYCARKPLLYSNLSPGAFDIWGQGTMVTVSS VL: EIVLTQSPGTVSLSPGERATLSCWASQSVSASYLAWYQQKPGQAPRLLIYGASSRATGIPDRFSGSGSGTDFTLTISRLEPEDFAVYYCQQYGTTPRTFGGGTKVEIK",8.31,> 1000
